Data from US20240325556A1, “Methods of Using Antibody-Drug-Conjugates” (priority 2021, published 2024).
Read-outs that look alike come from different tables or passages of the source. Square brackets hold non-standard residues; d marks the D form. Peptide text beside a SMILES is read from it. * marks the point of attachment. Dolaproine = CO[C@@H]([C@@H]1CCCN1)[C@@H](C)C(=O)O; Dil = CC[C@H](C)[C@H](NC)[C@@H](CC(=O)O)OC; X1 = C[C@@H](N*)[C@@H](O)c1ccccc1; NMeV = CN[C@H](C(=O)O)C(C)C

Columns and labels:
NCI-H1781 cells = experiment: In vitro cytotoxicity assay against nectin-4-expressing cell line NCI-H1781; type: cell-based; details: for IC50: NCI-H1781 cells, 5 days incubation, CellTiter-Glo viability, read-out: Absolute IC50
Description: Cell lines were plated on Day −1 in 96-well plates (Corning #3603) at a density of 4×10^3 cells/well in 100 μL of growth media and cultured overnight. On Day 0, serial dilution of test samples was performed in growth media at 6× the final concentration and 20 μL was added to the cells. After incubation at 37° C. with 5% CO2 for 5 days, viability was measured using Promega CellTiter-Glo® according to the manufacturer's recommendations.
Methods: Free payloads (MMAE and camptothecin) and nectin-4 ADCs carrying either MMAE, camptothecin, or maytansine were produced and tested in an in vitro cytotoxicity assay against the nectin-4-expressing cell line, NCI-H1781 (FIG. 1).

[1] = 10 mg/kg weekly for four doses; cited from earlier work
Male Sprague-Dawley rats = experiment: Non-GLP rat toxicology study of nectin-4 ADCs; type: in vivo; details: 4 doses
Description: (§1) Male Sprague-Dawley rats (8-9 wk old at study start, 5 animals/group) were dosed intravenously with either vehicle alone or with nectin-4 conjugates made using antibodies carrying the variable regions of the rat cross-reactive antibody, enfortumab. The tested ADCs were nectin-4 vedotin (dosed at 10 mg/kg), and nectin-4 CH1/CT RED-106 (dosed at either 10 or 20 mg/kg). Dosing occurred weekly for a total of 4 doses (days 1, 8, 15, and 22). […] Body weights were recorded four times/week. Blood was collected from all animals for clinical pathology on days 5, 12, 19, and 26, and for toxicokinetic analysis at 8 h and days 4 and 7 post-dose (for all doses). Clinical observations were conducted daily.
Methods: Rat cross-reactive nectin-4 ADCs carrying either RED-106 or vedotin linker-payloads were prepared (DAR depicted in FIGS. 8A-8D) and tested in a rat toxicity study.

[2] = Toxicokinetic analysis of rat plasma samples (total antibody and total ADC ELISA); type: in vivo; details: repeat dose toxicity study, listed as RED-106 conjugate
Description: as §1
Methods: Total antibody and total ADC concentrations were quantified by ELISA as previously described and diagrammed in the figure. For total antibody, conjugates were captured with an anti-human IgG-specific antibody and detected with an HRP-conjugated anti-human Fc-specific antibody. For total ADC, conjugates were captured with an anti-human Fab-specific antibody and detected with a mouse anti-maytansine primary antibody, followed by an HRP-conjugated anti-mouse IgG-subclass 1-specific secondary antibody. Bound secondary antibody was detected using Ultra TMB One-Step ELISA substrate (Thermo Fisher). […] Data were analyzed using GraphPad Prism and Microsoft Excel software.

[3] = preclinical and clinical effects; cited from earlier work

Molecule `N.N.[Cl][Pt][Cl]` [Cisplatin] has an IC50 (NCI-H1781 cells) of 230 nM.

Molecule `CC[C@H](C)[C@@H]([C@@H](CC(=O)N1CCC[C@H]1[C@H](OC)[C@@H](C)C(=O)N[C@H](C)[C@@H](O)c1ccccc1)OC)N(C)C(=O)[C@@H](NC(=O)[C@@H](NC)C(C)C)C(C)C` [Free MMAE, monomethyl auristatin E] (H-[NMeV]V[Dil][Dolaproine]-X1) has an IC50 (NCI-H1781 cells) of 0.3 nM.

For “nectin-4 vedotin: nectin-4 conjugate with enfortumab variable regions, untagged antibody conjugated with maleimide-valcit-MMAE [reference compound]”, the “Toxicity noted in previous reports” value [1] is given as “fur and skin toxicity and mortality”, the “Clinical signs of toxicity in fur and skin” value (Male Sprague-Dawley rats; 10 mg/kg i.v. weekly) is given as “all animals exhibited clinical signs of toxicity in fur and skin” and the “Animals euthanized in distress” value (Male Sprague-Dawley rats; 10 mg/kg i.v. weekly, 5 animals/group) is given as 1 animal.

Work on `CC[C@@]1(O)C(=O)OCc2c1cc1n(c2=O)Cc2cc3ccccc3nc2-1` [Free Camptothecin, camptothecin] yielded an IC50 (NCI-H1781 cells; 120 h) of 1 nM.

In the case of “Nectin-4 CH1/CT RED-106: nectin-4 ADC with variable regions of enfortumab, CH1/CT aldehyde-tagged, carrying RED-106 maytansine linker-payload”, the IC50 (NCI-H1781 cells) is reported as 1 nM, the “In vitro potency of RED-106 conjugate compared with MMAE conjugate” value (NCI-H1781 cells; NCI-H1781 target cell line) is reported as “similar” and the “In vivo stability of the conjugate compared with the vedotin ADC” value [2] is reported as “improved in vivo stability”. The Mortality (Male Sprague-Dawley rats; 10 or 20 mg/kg i.v. weekly) was “no mortalities” and the “Signs of fur/skin toxicity compared with vedotin conjugate” value (Male Sprague-Dawley rats; 10 or 20 mg/kg i.v. weekly) was “fewer signs of fur/skin toxicity”.

B1: DS-1062 (conjugate, chains of the INN, looked up)
VH: QVQLVQSGAEVKKPGASVKVSCKASGYTFTTAGMQWVRQAPGQGLEWMGWINTHSGVPKYAEDFKGRVTISADTSTSTAYLQLSSLKSEDTAVYYCARSGFGSSYWYFDVWGQGTLVTVSS
VL: DIQMTQSPSSLSASVGDRVTITCKASQDVSTAVAWYQQKPGKAPKLLIYSASYRYTGVPSRFSGSGSGTDFTLTISSLQPEDFAVYYCQQHYITPLTFGQGTKLEIK
modifications: deruxtecan payload
In the case of B1, the “Toxicity noted in previous reports” value [3] is listed as “skin and mucosal toxicity”.
